{"source": "the DeepSol protein solubility set"}
{"assay": "soluble on expression in E. coli; label from the status in PepcDB or PDB records"}
{"sequence": "DVFVYGSFQEPSVVNLILECSPVMVPAQLHGYHVYRLKGRLHACISPSENGLINGKILTGLTDSQLENLDMIEGSEYVRKTVEVVLTDTSEKKQVETYVWANKDDPNLYGEWDFEEWRRLHMDKFIEASTKFIEWKKNPDG", "soluble on expression in E. coli": "not soluble"}
{"sequence": "AIAASGKRKGLSFDDKKTRLLELFNETCDFYTLKELEKIAPKLKGIITQSVKDVLQSLVDDDLVNSDKCGVQTIYWCLPSEAVAKRQRRLDALQQQLAEKRQKLTALQRQLVQVQAGREDSVERTAVLERLAACEAAWRERQRTLESYLECDPDVLAQRETETKTLIEQANRWTDNLYVIRSYVQRNLGVDLDLFDQQFELKPALQYLE", "soluble on expression in E. coli": "soluble"}
{"sequence": "MGCMNRENALHIVKQQMHEKRYIHTIGVMETAIELAKLYGVDEKKAEMAAIFHDYAKCRAISEMEEIIKREDLPKDLLCYNKELWHAPVGAYLVEKEVGITDSEILQAITYHTSGHENMTMLDKVIYVADYIEPGRKFPGVEEARKLAYTDINQALLFALKRTIQFLMEKDQTIYPLTFQTYNAVIKEEMSK", "soluble on expression in E. coli": "not soluble"}
{"sequence": "MSMLKIGDIVTRKSHGQDIYFIVTDIQNKDSSKPVYILRGLFYRIIVDAFEDDLVKKDSRSTRINLRRDLTMARSNAYRQIFTSRCFLFSKPRQRPGKVLHIDSSESFLKMCRNLYKEAGITSREYLAPESEQPNIIKRALAETKPDILVVTGHDSLKKGSDPNLLDSYRNSKYFIECVKEARKYQPDYDKLCIFAGACQSYFEAIMQAGANFASSPGRININALDPAIVSEKVALTNKDNYVTPEEVSKLTISGSKGIGGIKTRGHLTVL", "soluble on expression in E. coli": "soluble"}
{"sequence": "MGSDKIHHHHHHMERTNTTTFKFFSLGGSNEVGRSCHILQYKGKTVMLDAGIHPAYQGLASLPFYDEFDLSKVDILLISHFHLDHAASLPYVMQRTNFQGRVFMTHPTKAIYRWLLRDFVRVTSIGSSSSSMGTKDEGLFSDEDLVDSFDKIETVDYHSTVDVNGIKFTAFHAGHVLGAAMFQIEIAGLRVLFTGDYSREVDRHLNSAEVPPLSSNVLIVESTFGTATHEPRLNRERKLTQLIHSTVMRGGRVLLPVFALGRAQEIMLILDEYWSQHADELGGGQVPIFYASNLAKKCMSVFQTYVNMMNDDIRKKFRDSQTNPFIFKNISYLRNLEDFQDFGPSVMLASPGMLQSGLSRDLLERWCPEDKNLVLITGYSIEGTMAKFIMLEPDTIPSINNPEITIPRRCQVEEISFAAHVDFQENLEFIEKISAPNIILVHGEANPMGRLKSALLSNFASLKGTDNEVHVFNPRNCVEVDLEFQGVKVAKAVGNIVNEIYKEENVEIKEEIAAKIEPIKEENEDNLDSQAEKGLVDEEEHKDIVVSGILVSDDKNFELDFLSLSDLREHHPDLSTTILRERQSVRVNCKKELIYWHILQMFGEAEVLQDDDRVTNQEPKVKEESKDNLTNTGKLILQIMGDIKLTIVNTLAVVEWTQDLMNDTVADSIIAILMNVDSAPASVKLSSHSCDDHDHNNVQSNAQGKIDEVERVKQISRLFKEQFGDCFTLFLNKDEYASNKEETITGVVTIGKSTAKIDFNNMKILECNSNPLKGRVESLLNIGGNLVTPLC", "soluble on expression in E. coli": "not soluble"}
{"sequence": "MEFEFIRNTLMGEYYVKCSMGHEIVGRWLQEEIGKDPTMIAQVEALIDKAFSLPSQEHTLTGTEISLMIQGDEVLVQENALSHDYDVEMESEFDFYDAESTASCGIEDFVALIEQWKDFLNI", "soluble on expression in E. coli": "not soluble"}
{"sequence": "TPYRAMYQYRPQNEDELELREGDRVDVMQQCDDGWFVGVSRRTQKFGTFPGNYVAPV", "soluble on expression in E. coli": "soluble"}
{"sequence": "GPGSMDRGYPRRREGGASFGGGGFGGVGGFSGGSGGPPAGGPRRRFRSDFDPEEYAPRRKLHGQRPVDFYSPAIRHVLTRLVPRSTPYSYHVAPHEYYTKDLVTASVTNYNASTALCTQWVNTSYHPDSKGGRIRTPLYALQWSPSGRRLLCSTGRGEFLLFNGQSFGVEVKTVAHEDNRPCRAIAWGRRHDLILSGDDAGKLKMWMPNFVFMSEVDTSHRAVREISWAPLELKFCTAGQDGSAKVWDTNTVGAHTATAGASDGNQAVLEEVKLEGHGGDVTTAHWHPYRALIATGSQDTQCRLWDPRTASRGSIAALHGHSQALTCVRWHPDGRTLLSASKDGTVKLWDIRKTQPEVKRFTGHTDAVDKVDWHPTVSDLFASTGADGSVMYWMVAEGDGTMTHGVEEVVHDAAMIEAAHEKFRDKPNPVHCVAWSPLGNILASSGHEVKYWTRNKPGALEEKERGVESDILDEQGHVMV", "soluble on expression in E. coli": "not soluble"}
{"sequence": "MDIYVCTVCGYEYDPAKGDPDSGIKPGTKFEDLPDDWACPVCGASKDAFEKQ", "soluble on expression in E. coli": "soluble"}
{"sequence": "GAAASIQTTVNTLSERISSKLEQEANASAQTKCDIEIGNFYIRQNHGCNLTVKNMCSADADAQLDAVLSAATETYSGLTPEQKAYVPAMFTAALNIQTSVNTVVRDFENYVKQTCNSSAVVDNKLKIQNVIIDECYGAPGSPTNLEFINTGSSKGNCAIKALMQLTTKATTQIAPKQVAGTGVQ", "soluble on expression in E. coli": "soluble"}
{"sequence": "SLLKKIKKALFQPKKFFQDSMWLTTSPFYLTPPRNNLFVISNLGQLNQVQSLIKIQKLTNNLLVILYTSKNLKMPKLVHQSANKNLFESIYLFELPRSPNNITPKKLLYIYRSYKKILNIIQPAHLYMLSFTGHYSYLISIAKKKNITTHLIDEGTGTYAPLLESFSYHPTKLERYLIGNNLNIKGYIDHFDILHVPFPEYAKKIFNAKKYNRFFAHAGGISINNNIANLQKKYQISKNDYIFVSQRYPISDDLYYKSIVEILNSISLQIKGKIFIKLHPKEMGNNYVMSLFLNMVEINPRLVVINEPPFLIEPLIYLTNPKGIIGLASSSLIYTPLLSPSTQCLSIGELIINLIQKYSMVENTEMIQEHLEIIKKFNFINILNDLNGVISNPLFKTEETFETLLKSAEFAYKSKNYFQAIFYWQLASKNNITLLGHKALWYYNALYNVKQIYKMEYSDIFYIDNISVDFHSKDKLTWEKIKHYYYSADNRIGRDR", "soluble on expression in E. coli": "not soluble"}
{"sequence": "GSPAAAPPTLPPYFMKGSIIQLANGELKKVEDLKTEDFIQSAEISNDLKIDSSTVERIEDSHSPGVAVIQFAVGEHRAQVSVEVLVEYPFFVFGQGWSSCCPERTSQLFDLPCSKLSVGDVCISLTLKNLKNG", "soluble on expression in E. coli": "soluble"}
{"sequence": "MAAECATQRAPGSVVELLGKSYPQDDHSNLTRKVLTRVGRNLHNQQHHPLWLIKERVKEHFYKQYVGRFGTPLFSVYDNLSPVVTTWQNFDSLLIPADHPSRKKGDNYYLNRTHMLRAHTSAHQWDLLHAGLDAFLVVGDVYRRDQIDSQHYPIFHQLEAVRLFSKHELFAGIKDGESLQLFEQSSRSAHKQETHTMEAVKLVEFDLKQTLTRLMAHLFGDELEIRWVDCYFPFTHPSFEMEINFHGEWLEVLGCGVMEQQLVNSAGAQDRIGWAFGLGLERLAMILYDIPDIRLFWCEDERFLKQFCVSNINQKVKFQPLSKYPAVINDISFWLPSENYAENDFYDLVRTIGGDLVEKVDLIDKFVHPKTHKTSHCYRITYRHMERTLSQREVRHIHQALQEAAVQLLGVEGRF", "soluble on expression in E. coli": "soluble"}
{"sequence": "MGSDKIHHHHHHMSGPAGLIVRMDGFNLPAGYLASDEARAISFAYDDRYIAAGGPPLSLSMPLEQVSFGDVTARAFFDNLLPENDQMQRVMDREGLARDDIVGLLSHLGADCSGAISCLPIGADPIKVPGVLSEDYELLAPGAIAEIARSLAERQRLPDTITDPSPVAGVQRKIALTHTPQGFAKPRPGRKVPTTHILKVPETRLRRDARLEAAAARLASALGLDVSIPEAIVIDGVDALLITRFDRVVRDGVVYRLHQEDFAQAMGLPATLKYQRNGAPGRQFDAQAIARVLDQTEAPALSRTAFLSATIFNLLIGNTDNHAKNHGLLYRQGRAPILAPLYDLLPSRMNLDFNDQLSFNIGAADHPDAITFDDMMAFFEVFGMRRAAAARFIENVIKPMIEALERATLGLAGERLKDMDDLIGRETEQLVEVLGLDVAVRERDYYPKVRHALAPS", "soluble on expression in E. coli": "not soluble"}
{"sequence": "MTALAVAPASAACAIAAEAIHCAAMDTASAADEALMLAYGAEGDMDAFDALYARHRAGLYRYILRSARNAAQADDIFQETWSRVIDARARYRPQARFTTWLLQIAHNLLVDAHRRQPAPVAPEQAEAALASVPAAEHEQPEARLSEFQQRRRLQLAIERLPDEQRLAMLLRLEHDLDVEEIAQVTGVSRETVKSRLRYATRRIREELSSESAPRSP", "soluble on expression in E. coli": "not soluble"}
{"sequence": "MGSDKIHHHHHHMKQVDYIIVGQGLAGSCLVQSLWHEKQSVVVIASSERKASSTVAAGLYNPITGKKMLLTWNAAVLFPYLDLFYRSAERELDTTILYPKAIVRPFTDIQAQNDFWAKSTPEIAAFAEPEQNIEKYDPYIWFPYGGLITKHSGYVDVQAFLGAIKQKLVEKDQYIEETFDHAALQFSTNSVAYKGIQAKKIIFAEGFHNTRNPIFNWVPVKGMKGDVLTLDIEAYALKEVVNKHFFIIPLPNGKFRMGSSYIREFEDDAPTEGGLKEITEGAHTILKKPFVVIEQKAGIRPVVPDHRPIIGEHPEQPLALIFNGLGTKGVSIAPYASKTLTNFLLLNQEIDQSMSVNRFNYLYFKQKNN", "soluble on expression in E. coli": "not soluble"}
{"sequence": "MSLETYIHEVVAPKLVGRDPLEIDRISKDLTGYLGFRSTGAEMRGNSAVDIGLWDLFGKATNLPIAQLLGGFSRREIRTYNTCAGNTYMRDAKGQQTANYGIGGPRRDYDDLNGFLERADELAEDLLSEGITAMKIWPFDIAAEKSGGQYISGPDLRKALEPFEKIRKRVGDRIDIMVEFHSMWQLTPAIQIARALEPYATFWHEDPIKMDSLSSLKRYAAASRAPLCASETLATRWAFRDLMETDAAGVVMLDLSWCGGISEAKKISTMAEAWHLPVAPHDCTGPVVLAASTHLSLNAPNALVQESVRAYYKTWYADLTTQLPTVTNGMITIPPGAGHGVDLAPDLDRKFEVSRRSSQIEDEGHHHHHH", "soluble on expression in E. coli": "not soluble"}
{"sequence": "MATDQKRGLLIVFEGLDRSGKSTQAKRLVESINKKSTESGDASSSPSAVLQAFPDRSSSIGKLIDQYLRKEIDMDEHALHLLFSADRFSKNQMIRDNIAKGIDVICDRYCYSGVAYSLAKGLPEQWVRSSDVGLPKPDAVLFFDVSPEVAAQRGGFGEERLETATIQQKVAAVMPTLRDDAYWKTVNADGDLDSVEKNVFRIYENLDREKPFESLEKI", "soluble on expression in E. coli": "not soluble"}
{"sequence": "MGSDKIHHHHHHMIIAGAVPIKGMELIKGPVKLNKDTFEIKNKELPISMGTCALLGAAFKTLEYFGKEDELTFITAGDVGEGDGSLEIYEELHEINDDLTIIHYIKPKISEIIKVDFSKNVIGDAGGMYAGKAAGIGNKFHMFFPDVGELAFLADENSSHPAYVRGFISEIDDQEIPKLIKMAYTQKMPKNMVVKGSKDHIVNEGNIIETVEYPKFEAMECIGGTGDTLTGIASSLIACGFKTEKAGILGCKLNRKLGELVKPRPDTQIYEIIQKIPEALKEFDL", "soluble on expression in E. coli": "not soluble"}
{"sequence": "MGSDKIHHHHHHMIYRNWLGIIGVACILFVSCKPTEVDVPITYYSSFLLKDTTVMLSKVEMDPMQVNARCMVWDGDKRVLVRTSTTDSIYAVFAYPEMKFLSYTGSLSEYKQILAECNEGFYLVKDDSLYLYHLTDKDLLQKTTTHFLYNSNKIRLSKIKKLNDKMYTAHAYTDPSYNDIRLNEFYMLDAENNILYPKGHYPERTEVRFKTIFDFKFAYAHEVWPKPDGSRILVNYVRTRRFRIYDLSARLLHDVCLDYASNKYVVDADPKRWTTFIRDCFVTDKYIYLLCPEGEQSSLVIVDWEGRPIARYRLDEKIFFFFIDPDRNLFCGINSNNGQSFYFLDLDIN", "soluble on expression in E. coli": "not soluble"}
{"sequence": "MKHARRLRQLSQENLAHISGLSQSAVASYENGLRQSSRSIRKLAIALQVNLDWLETGAGPMELEAYPSGPAAWRPGLMEPGGERAAAPWPFRAVAHARYQALSARDKLLLEQLVRTFIDTCHADYGRAPPWPRER", "soluble on expression in E. coli": "not soluble"}
